# Reference: patent publication US20110142868A1 (CHIRALIX B V, published 2011)
# Numbered stars: 1 amine (or outer) side, 2 acyl side, 3 side chain; on linkers, the order of the positions; unused ones are H or OH. Square brackets hold non-standard residues; d marks the D form. Ends that are not written are not given here. * marks the point of attachment. O(CA) = ornithine chloroamidine, N=C(CCl)NCCC[C@H](N[*:1])C(=O)[*:2]; Orn(fluoroacetimidoyl) = N=C(CF)NCCC[C@H](N)C(=O)O; 2Naphthylsulfonyl = O=S(=O)(c1ccc2ccccc2c1)*; AEEA = NCCOCCOCC(=O)O
# B1: 0748-25FA (peptide)
# peptide: Ac-KHD[Orn(fluoroacetimidoyl)]DFL-NH2
# SMILES: CC(=O)N[C@@H](CCCCN)C(=O)N[C@@H](Cc1c[nH]cn1)C(=O)N[C@@H](CC(=O)O)C(=O)N[C@@H](CCCNC(=N)CF)C(=O)N[C@@H](CC(=O)O)C(=O)N[C@@H](Cc1ccccc1)C(=O)N[C@@H](CC(C)C)C(N)=O
# B2: 0741-03FA (peptide)
# peptide: Ac-FFDSHKFD[Orn(fluoroacetimidoyl)]DFIYSD-NH2
# SMILES: CC[C@H](C)[C@H](NC(=O)[C@H](Cc1ccccc1)NC(=O)[C@H](CC(=O)O)NC(=O)[C@H](CCCNC(=N)CF)NC(=O)[C@H](CC(=O)O)NC(=O)[C@H](Cc1ccccc1)NC(=O)[C@H](CCCCN)NC(=O)[C@H](Cc1c[nH]cn1)NC(=O)[C@H](CO)NC(=O)[C@H](CC(=O)O)NC(=O)[C@H](Cc1ccccc1)NC(=O)[C@H](Cc1ccccc1)NC(C)=O)C(=O)N[C@@H](Cc1ccc(O)cc1)C(=O)N[C@@H](CO)C(=O)N[C@@H](CC(=O)O)C(N)=O
# B3: 0837-27FA (peptide)
# peptide: 2Naphthylsulfonyl-KFD[Orn(fluoroacetimidoyl)]DFI[AEEA]-NH2
# SMILES: CC[C@H](C)[C@H](NC(=O)[C@H](Cc1ccccc1)NC(=O)[C@H](CC(=O)O)NC(=O)[C@H](CCCNC(=N)CF)NC(=O)[C@H](CC(=O)O)NC(=O)[C@H](Cc1ccccc1)NC(=O)[C@H](CCCCN)NS(=O)(=O)c1ccc2ccccc2c1)C(=O)NCCOCCOCC(N)=O
# B4: 0837-14FA (peptide)
# peptide: Ac-KWH[Orn(fluoroacetimidoyl)]DFF[AEEA]-NH2
# SMILES: CC(=O)N[C@@H](CCCCN)C(=O)N[C@@H](Cc1c[nH]c2ccccc12)C(=O)N[C@@H](Cc1c[nH]cn1)C(=O)N[C@@H](CCCNC(=N)CF)C(=O)N[C@@H](CC(=O)O)C(=O)N[C@@H](Cc1ccccc1)C(=O)N[C@@H](Cc1ccccc1)C(=O)NCCOCCOCC(N)=O
# Assays:
# Assay in all cases: cell-based or functional assay
# recombinant human PAD2 [1] = molecular target: T1, recombinant human PAD2 (human, UniProt Q9Y2J8 1-665)
# recombinant human PAD4 [2] = molecular target: T2, recombinant human PAD4 (human, UniProt Q9UM07 1-663)
# recombinant human PAD2 [3] = molecular target: T1, recombinant human PAD2; remark: listed apart in the source
# recombinant human PAD4 [4] = molecular target: T2, recombinant human PAD4; remark: listed apart in the source
# recombinant human PAD2 [5] = molecular target: T1, recombinant human PAD2; remark: listed apart in the source
# recombinant human PAD4 [6] = molecular target: T2, recombinant human PAD4; remark: listed apart in the source
# recombinant human PAD2 [7] = molecular target: T1, recombinant human PAD2; remark: listed apart in the source
# recombinant human PAD4 [8] = molecular target: T2, recombinant human PAD4; remark: listed apart in the source
# recombinant human PAD2 [9] = molecular target: T1, recombinant human PAD2; remark: listed apart in the source
# recombinant human PAD4 [10] = molecular target: T2, recombinant human PAD4; remark: listed apart in the source
# T2 sequence (Q9UM07 whole entry): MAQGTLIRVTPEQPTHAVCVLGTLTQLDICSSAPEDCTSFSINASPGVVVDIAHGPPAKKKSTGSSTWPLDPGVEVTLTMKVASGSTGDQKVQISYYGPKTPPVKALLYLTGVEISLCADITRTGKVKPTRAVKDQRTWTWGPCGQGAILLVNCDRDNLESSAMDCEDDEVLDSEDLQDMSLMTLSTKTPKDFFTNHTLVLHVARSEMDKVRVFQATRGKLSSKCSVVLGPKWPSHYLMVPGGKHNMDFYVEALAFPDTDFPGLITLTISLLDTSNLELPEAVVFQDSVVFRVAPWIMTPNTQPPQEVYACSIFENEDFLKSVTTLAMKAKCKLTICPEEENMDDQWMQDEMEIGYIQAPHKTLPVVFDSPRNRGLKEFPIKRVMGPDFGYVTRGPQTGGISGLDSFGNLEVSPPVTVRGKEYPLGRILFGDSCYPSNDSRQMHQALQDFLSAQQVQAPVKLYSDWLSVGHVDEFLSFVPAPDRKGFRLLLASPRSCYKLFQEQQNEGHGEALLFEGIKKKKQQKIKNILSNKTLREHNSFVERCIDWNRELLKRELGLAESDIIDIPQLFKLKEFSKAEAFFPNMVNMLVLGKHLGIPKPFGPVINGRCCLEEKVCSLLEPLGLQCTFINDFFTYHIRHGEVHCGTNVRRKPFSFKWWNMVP
# T1 sequence (Q9Y2J8 whole entry): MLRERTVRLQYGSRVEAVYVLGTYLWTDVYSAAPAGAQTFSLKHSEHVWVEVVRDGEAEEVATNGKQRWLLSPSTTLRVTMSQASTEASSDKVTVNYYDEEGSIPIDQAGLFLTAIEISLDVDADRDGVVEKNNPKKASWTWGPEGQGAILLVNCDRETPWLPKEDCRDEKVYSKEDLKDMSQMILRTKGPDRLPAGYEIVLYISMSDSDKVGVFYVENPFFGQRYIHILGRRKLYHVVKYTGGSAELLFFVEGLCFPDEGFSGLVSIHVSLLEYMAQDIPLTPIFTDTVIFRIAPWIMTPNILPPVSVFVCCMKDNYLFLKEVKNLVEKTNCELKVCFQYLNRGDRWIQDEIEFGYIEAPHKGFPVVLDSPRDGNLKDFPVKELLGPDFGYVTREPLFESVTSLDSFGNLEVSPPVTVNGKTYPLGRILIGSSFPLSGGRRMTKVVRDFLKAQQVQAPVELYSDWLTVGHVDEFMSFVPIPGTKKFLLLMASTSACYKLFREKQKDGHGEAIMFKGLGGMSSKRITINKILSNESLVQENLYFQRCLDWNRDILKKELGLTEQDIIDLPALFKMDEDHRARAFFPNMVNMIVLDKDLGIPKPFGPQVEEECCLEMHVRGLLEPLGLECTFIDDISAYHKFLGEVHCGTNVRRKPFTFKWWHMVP
binder,measurement,setting,value
GD[O(CA)]GS [G-D-O(CA)-G-S],"IC50 values (µM), ABAP PAD activity assay, second round",recombinant human PAD2 [1],38 µM
same,"IC50 values (µM), ABAP PAD activity assay, second round",recombinant human PAD4 [2],60 µM
B1,"conversion of 0708-30 by PAD2, 10 µM inhibitor (0 µM: 68)",recombinant human PAD2 [3],47%
same,"conversion of 0708-30 by PAD2, 50 µM inhibitor (0 µM: 68)",recombinant human PAD2 [3],20%
same,"conversion of 0708-30 by PAD2, 100 µM inhibitor (0 µM: 68)",recombinant human PAD2 [3],11%
same,"conversion of 0708-30 by PAD4, 10 µM inhibitor (0 µM: 81)",recombinant human PAD4 [4],45%
same,"conversion of 0708-30 by PAD4, 50 µM inhibitor (0 µM: 81)",recombinant human PAD4 [4],18%
same,"conversion of 0708-30 by PAD4, 100 µM inhibitor (0 µM: 81)",recombinant human PAD4 [4],12%
SS[O(CA)]DG [S-S-O(CA)-D-G],"IC50 values (µM), ABAP PAD activity assay",recombinant human PAD2 [5],55 µM
same,"IC50 values (µM), ABAP PAD activity assay",recombinant human PAD4 [6],203 µM
SS[Orn(fluoroacetimidoyl)]DG [S-S-O(FA)-D-G],"IC50 values (µM), ABAP PAD activity assay",recombinant human PAD2 [5],14 µM
same,"IC50 values (µM), ABAP PAD activity assay",recombinant human PAD4 [6],177 µM
B2,"conversion of 0708-30 by PAD2, 10 µM inhibitor",recombinant human PAD2 [7],39%
same,"conversion of 0708-30 by PAD2, 50 µM inhibitor",recombinant human PAD2 [7],13%
same,"conversion of 0708-30 by PAD2, 100 µM inhibitor",recombinant human PAD2 [7],6%
same,"conversion of 0708-30 by PAD4, 10 µM inhibitor",recombinant human PAD4 [8],45%
same,"conversion of 0708-30 by PAD4, 50 µM inhibitor",recombinant human PAD4 [8],12%
same,"conversion of 0708-30 by PAD4, 100 µM inhibitor",recombinant human PAD4 [8],9%
B3,Inhibition of PAD2: value at 10 µM inhibitor (0 µM: 74),recombinant human PAD2 [9],24%
same,Inhibition of PAD2: value at 20 µM inhibitor (0 µM: 74),recombinant human PAD2 [9],14%
same,Inhibition of PAD2: value at 40 µM inhibitor (0 µM: 74),recombinant human PAD2 [9],7%
same,Inhibition of PAD2: value at 80 µM inhibitor (0 µM: 74),recombinant human PAD2 [9],4%
same,Inhibition of PAD4: value at 10 µM inhibitor (0 µM: 71),recombinant human PAD4 [10],35%
same,Inhibition of PAD4: value at 20 µM inhibitor (0 µM: 71),recombinant human PAD4 [10],20%
same,Inhibition of PAD4: value at 40 µM inhibitor (0 µM: 71),recombinant human PAD4 [10],12%
same,Inhibition of PAD4: value at 80 µM inhibitor (0 µM: 71),recombinant human PAD4 [10],7%
GD[O(CA)]SG [G-D-O(CA)-S-G],"IC50 values (µM), ABAP PAD activity assay",recombinant human PAD2 [5],76 µM
same,"IC50 values (µM), ABAP PAD activity assay",recombinant human PAD4 [6],189 µM
GS[O(CA)]DG [G-S-O(CA)-D-G],"IC50 values (µM), ABAP PAD activity assay",recombinant human PAD2 [5],172 µM
same,"IC50 values (µM), ABAP PAD activity assay",recombinant human PAD4 [6],816 µM
B4,Inhibition of PAD2: value at 10 µM inhibitor (0 µM: 76),recombinant human PAD2 [9],38%
same,Inhibition of PAD2: value at 20 µM inhibitor (0 µM: 76),recombinant human PAD2 [9],24%
same,Inhibition of PAD2: value at 40 µM inhibitor (0 µM: 76),recombinant human PAD2 [9],14%
same,Inhibition of PAD2: value at 80 µM inhibitor (0 µM: 76),recombinant human PAD2 [9],8%
same,Inhibition of PAD4: value at 10 µM inhibitor (0 µM: 67),recombinant human PAD4 [10],54%
same,Inhibition of PAD4: value at 20 µM inhibitor (0 µM: 67),recombinant human PAD4 [10],39%
same,Inhibition of PAD4: value at 40 µM inhibitor (0 µM: 67),recombinant human PAD4 [10],29%
same,Inhibition of PAD4: value at 80 µM inhibitor (0 µM: 67),recombinant human PAD4 [10],21%
TD[O(CA)]GS [T-D-O(CA)-G-S],"IC50 values (µM), ABAP PAD activity assay",recombinant human PAD2 [5],34 µM
same,"IC50 values (µM), ABAP PAD activity assay",recombinant human PAD4 [6],153 µM
